Laboratory results published in the RNAGym collection of RNA variant scans (doi:10.7554/elife.90254).

B1: OR4K15 (parent)
chain: GUUAACGGUCAUAGGCCAUGGAAACUAGGAGCACCAUUUCGCUGCCAGUGAAGAAAUGAACAAAGAAAAUCUGGGCCAGGCAGGCAUCAAAAGAAAUAGUCUUGCGCUCAACCAGAAAGUCUGUAAUCAUUUUAAGGGUA

Variants of: B1
Experiment: self-cleavage, relative activity (ratio to wild type); higher = more cleavage; in vitro, sequencing; the parent is a self-cleaving ribozyme
With U108A U131C the self-cleavage was 0.01.
A33G A114C gave a self-cleavage of 0.05.
Variant A89G A92U has a self-cleavage of 1.57.
U70C A94G gave a self-cleavage of 0.77.
In the case of A36G A91C, the self-cleavage is reported as 1.96.
With A68G G137C the self-cleavage was 1.12.
U3G A30G gave a self-cleavage of 1.12.
Work on C40U A51U yielded a self-cleavage of 2.
With G28U A62G the self-cleavage was 1.64.
In the case of U19A A96G, the self-cleavage is reported as 1.64.
Variant U2C U38A has a self-cleavage of 1.07.
Work on U2G A111U yielded a self-cleavage of 0.17.
U2G gave a self-cleavage of 0.92.
Variant A4G C35A has a self-cleavage of 1.14.
Work on U19C C46A yielded a self-cleavage of 1.64.
Variant U19A A78U has a self-cleavage of 0.35.
With A47U A59G the self-cleavage was 0.62.
For A60G A63G, the self-cleavage was 1.35.
Variant A68G A134G has a self-cleavage of 1.5.
In the case of A66G A126U, the self-cleavage is reported as 1.54.
Variant C34A U103C has a self-cleavage of 0.77.
For A90G A116G, the self-cleavage was 0.8.
In the case of A13U A33C, the self-cleavage is reported as 2.21.
A4G A27G gave a self-cleavage of 1.52.
Work on U43C G99C yielded a self-cleavage of 0.26.
Variant U102C U131C has a self-cleavage of 2.13.
U122C G136U showed a self-cleavage of 1.86.
In the case of U2C A140G, the self-cleavage is reported as 0.72.
Work on U19A A89G yielded a self-cleavage of 0.78.
Variant U49A A51U has a self-cleavage of 1.63.
U9C U43A showed a self-cleavage of 1.24.
For A55G U87A, the self-cleavage was 1.33.
Work on U57A A60G yielded a self-cleavage of 1.19.
Variant U12A U122A has a self-cleavage of 0.62.
For U139G A140U, the self-cleavage was 1.51.
In the case of A13G U72C, the self-cleavage is reported as 0.54.
U39C A111C gave a self-cleavage of 0.01.
Work on A47C A59C yielded a self-cleavage of 1.35.
With U57G A117G the self-cleavage was 2.08.
A78U A114G gave a self-cleavage of 0.11.
Variant U87C U108A has a self-cleavage of 0.01.
Variant G73U A116G has a self-cleavage of 0.11.
A51U A78C showed a self-cleavage of 0.2.
In the case of C101U A118G, the self-cleavage is reported as 0.02.
In the case of A23G U103C, the self-cleavage is reported as 0.77.
For U2C A13G, the self-cleavage was 0.99.
A24G A111U showed a self-cleavage of 0.19.
A13G A118C gave a self-cleavage of 0.41.
In the case of A94G U102A, the self-cleavage is reported as 0.96.
For U72C A126U, the self-cleavage was 0.4.
With A22U A92G the self-cleavage was 1.41.
Work on A11G G48A yielded a self-cleavage of 1.9.
Work on U38A U103G yielded a self-cleavage of 0.04.
Work on A59G A129C yielded a self-cleavage of 0.55.
In the case of A92G U102A, the self-cleavage is reported as 0.61.
Work on A18U A82U yielded a self-cleavage of 0.16.
Variant A47U A51G has a self-cleavage of 0.86.
With G74A U102C the self-cleavage was 0.05.
Variant U57C U103A has a self-cleavage of 0.15.
U37A A82G showed a self-cleavage of 0.61.
For A92G A95U, the self-cleavage was 1.8.
With A4G U37C the self-cleavage was 0.91.
A5G A22G showed a self-cleavage of 0.81.
A82G U132C showed a self-cleavage of 0.5.
A18U A69U showed a self-cleavage of 1.37.
A22G U132A showed a self-cleavage of 1.93.
For A51G A116U, the self-cleavage was 0.05.
In the case of A89G U127C, the self-cleavage is reported as 1.03.
Work on U38A A94C yielded a self-cleavage of 1.68.
Variant A5C A110U has a self-cleavage of 0.95.
In the case of A52U A69G, the self-cleavage is reported as 2.44.
For A22G U43A, the self-cleavage was 1.31.
A68C U132C showed a self-cleavage of 1.61.
With A55C U72C the self-cleavage was 0.24.
U49A A54G gave a self-cleavage of 1.3.
U2A A86G showed a self-cleavage of 1.46.
For A67G A89G, the self-cleavage was 0.82.
In the case of U9C G115C, the self-cleavage is reported as 0.11.
Work on A64C C76U yielded a self-cleavage of 0.26.
A96C U130C gave a self-cleavage of 0.69.
C16A U57G gave a self-cleavage of 0.88.
A64G G137A gave a self-cleavage of 0.96.
For A82U A114G, the self-cleavage was 0.03.
